Viability of RT4 cells treated in vitro with rabusertib (Chk1 inhibitor) plus atezolizumab data for one substance are collected here from patent publication US20210332136A1.

The target of the test is human PD-L1 on RT4 human bladder cancer cells (human) (UniProt Q9NZQ7). Description: cell-based or functional assay.
human PD-L1 on RT4 human bladder cancer cells (human), sequence (Q9NZQ7 19-290): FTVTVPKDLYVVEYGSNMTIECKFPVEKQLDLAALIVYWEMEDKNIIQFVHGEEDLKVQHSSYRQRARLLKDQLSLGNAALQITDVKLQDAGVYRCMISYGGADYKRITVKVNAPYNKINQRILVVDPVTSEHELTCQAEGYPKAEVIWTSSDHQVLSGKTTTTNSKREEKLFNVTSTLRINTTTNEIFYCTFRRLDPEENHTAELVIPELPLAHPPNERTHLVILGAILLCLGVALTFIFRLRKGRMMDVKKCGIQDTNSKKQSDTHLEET

For atezolizumab (antibody), the viability of RT4 cells treated in vitro with rabusertib (Chk1 inhibitor) plus atezolizumab stood at 100%.
